Series [1] concerns 1E7 cells. In words: NK cell cytotoxicity assay against 1E7 cells. The series is classed as cell-based. The note with it: 1E7 target cells; NK cell to target cell ratio 5:1 or 10:1. The protocol:
Target MCF10A cells were fluorescently labeled by incubation with 1 M CellTracker Green CMFDA Dye (Invitrogen) in MCF10A growth media for 10 minutes. 3×10^4 labeled target cells were suspended with varying ratios of NK-92 effector cells in 200 μL of growth media of target cell line in absent of IL-2 and cocultured in an ultra-low attachment U-bottom 96-well plate (Corning) for 4 hours at 37° C. in 5% C02. For all StcE-treated NK cell experiment, unless otherwise indicated, NK cells were incubated with 100 nM StcE at 37° C. for 1 hour. Cells were thoroughly washed to remove StcE and coculture with target cells. After 4 hours, propidium iodide (PI; 20 μg/mL, Sigma) was added to each well for 10 minutes and washed with 0.5% BSA PBS. […] NK cell cytotoxicity was evaluated by flow cytometry as previously described^16,81. At least 1×10^4 target cells were analyzed after electronic gating on CellTracker Green. Percent cytotoxicity was calculated as 100×(experimental % dead−spontaneous % dead)/(100−spontaneous % dead), where experimental % dead was the percentage of PI positive target cells in NK cocultures and spontaneous % dead was the percentage of PI positive control target cells cultured in the absence of effector cells.

The test system of series [2] is NK-92 cells. In words: Flow cytometry of mucin levels on NK-92 cells after StcE incubation. The series is classed as cell-based. The following applies: 100 nM recombinant enzyme. The procedure: FIG. 11. StcE mucinase effectively remove cell-surface mucin on 1E7 clone and NK cell. (A) Representative confocal images of Muc1-GFP expressing 1E7 cells with and without treatment with 100 nM StcE, StcE ΔX409, or StcE-EE Zip; Alexa Fluor 647 conjugated to GFP nanobody is used to probe cell-surface Muc1-GFP constructs. (Scale bar, 10 μm). (B) Quantification of mean fluorescence intensity of Muc1-GFP and cell-surface Muc1-GFP probed with GFP nanobody in 1E7 cells treated with the indicated concentration of StcE mucinase; results are shown for induction of Muc1-GFP at 100 ng/ml and 1000 ng/ml doxycycline. (C) Cytotoxicity of NK-92 cells against 1E7 cells treated with control buffer, 100 nM StcE mucinase, or 5,000 U/mL PNGase F for 1 hour; Muc1-GFP induction is at the indicated doxycycline concentration (1,100, and 1,000 ng/ml); NK cell to target cell ratio is 5:1. (D) Flow cytometry analysis of mucin levels on NK-92 cells following incubation with control buffer or 100 nM recombinant StcE or StcE ΔX409; StcE surface level after incubation probed with anti His-tag antibody and cell-surface mucin level probed with catalytically dead StcE E447D conjugated to Cy5. Statistical significance is given by ns—not significant, *P≤0.05, **P≤0.01, ***P≤0.001, ****P≤0.0001. Results are a representative dataset from 3 independent replicates. […]

B1: StcE-ΔX409: StcE with a deleted C-terminal X409 lectin domain; NK cells treated with it: StcE-ΔX409 NK (protein)
chain: ADNNSAIYFNTSQPINDLQGSLAAEVKFAQSQILPAHPKEGDSQPHLTSLRKSLLLVRPVKADDKTPVQVEARDDNNKILGTLTLYPPSSLPDTIYHLDGVPEGGIDFTPHNGTKKIINTVAEVNKLSDASGSSIHSHLTNNALVEIHTANGRWVRDIYLPQGPDLEGKMVRFVSSAGYSSTVFYGDRKVTLSVGNTLLFKYVNGQWFRSGELENNRITYAQHIWSAELPAHWIVPGLNLVIKQGNLSGRLNDIKIGAPGELLLHTIDIGMLTTPRDRFDFAKDKEAHREYFQTIPVSRMIVNNYAPLHLKEVMLPTGELLTDMDPGNGGWHSGTMRQRIGKELVSHGIDNANYGLNSTAGLGENSHPYVVAQLAAHNSRGNYANGIQVHGGSGGGGIVTLDSTLGNEFSHEVGHNYGLGHYVDGFKGSVHRSAENNNSTWGWDGDKKRFIPNFYPSQTNEKSCLNNQCQEPFDGHKFGFDAMAGGSPFSAANRFTMYTPNSSAIIQRFFENKAVFDSRSSTGFSKWNADTQEMEPYEHTIDRAEQITASVNELSESKMAELMAEYAVVKVHMWNGNWTRNIYIPTASADNRGSILTINHEAGYNSYLFINGDEKVVSQGYKKSFVSDGQFWKERDVVDTREARKPEQFGVPVTTLVGYYDPEGTLSSYIYPAMYGAYGFTYSDDSQNLSDNDCQLQVDTKEGQLRFRLANHRANNTVMNKFHINVPTESQPTQATLVCNNKILDTKSLTPAPEGLTYTVN
Take B1: in series [1], the “cytotoxicity of enzyme-equipped or enzyme-treated NK cells compared to unmodified NK-92 cells” value is reported as “not significantly enhanced”. Further, the “trimming of mucin-domain containing proteins on NK-92 cells” value in series [2] was “trimmed similarly”.

Source of the values: patent US20250152627A1, “COMPOSITIONS AND METHODS FOR ENHANCING IMMUNE CELL FUNCTION USING MODIFIED CELLS WITH GLYCOCALYX EDITING ENZYMES” (Cornell University, priority 2021, published 2025).
